Test results published in patent US20170224837A1.
Where two headings read alike, the source gives them in different places. Each block holds one molecule with its values, some of them ahead of it.

Tests used:
[1] = target: human Trop-2 (EGP-1, TACSTD2) on human tumor cells or tissues (human) (UniProt P09758); experiment: cell binding on NCI-N87 cells, anti-mouse-HRP, luminescence
[2] = target: recombinant human neonatal receptor (FcRn) (human) (UniProt P55899); experiment: SPR (BIACORE), low-density FcRn chip, three runs at 400 to 25 nM
Chain of recombinant human neonatal receptor (FcRn) (human) (P55899 24-297 limits assumed): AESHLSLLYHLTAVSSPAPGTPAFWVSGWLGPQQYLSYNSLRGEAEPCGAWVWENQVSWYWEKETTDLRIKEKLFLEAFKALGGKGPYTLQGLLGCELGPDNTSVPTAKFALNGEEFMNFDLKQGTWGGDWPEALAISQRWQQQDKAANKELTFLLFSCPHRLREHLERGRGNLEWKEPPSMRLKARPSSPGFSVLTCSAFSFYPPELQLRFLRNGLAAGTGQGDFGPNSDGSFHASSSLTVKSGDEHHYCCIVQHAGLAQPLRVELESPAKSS

[3] = target: recombinant human neonatal receptor (FcRn) (human) (UniProt P55899); experiment: SPR (BIACORE), FcRn chip
[4] = target: human Trop-2 (EGP-1, TACSTD2) on human tumor cells or tissues (human) (UniProt P09758); experiment: cell-based or functional assay
[5] = target: rhTrop-2/TACSTD2 (Sino Biological, Inc.), recombinant human Trop-2 immobilized on CM5 chip (human) (UniProt P09758); experiment: SPR (BIACORE), Trop-2 chip
Chain of rhTrop-2/TACSTD2 (Sino Biological, Inc.), recombinant human Trop-2 immobilized on CM5 chip (human) (P09758 27-274 limits assumed): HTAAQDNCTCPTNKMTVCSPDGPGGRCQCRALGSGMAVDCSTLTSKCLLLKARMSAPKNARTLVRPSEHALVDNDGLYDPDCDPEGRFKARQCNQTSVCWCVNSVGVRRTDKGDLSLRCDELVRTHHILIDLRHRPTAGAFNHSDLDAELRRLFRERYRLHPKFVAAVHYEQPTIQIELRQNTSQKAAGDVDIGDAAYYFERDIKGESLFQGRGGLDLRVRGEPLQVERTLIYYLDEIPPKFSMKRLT

[6] = target: rhTrop-2/TACSTD2 (Sino Biological, Inc.), recombinant human Trop-2 immobilized on CM5 chip (human) (UniProt P09758); experiment: SPR (BIACORE), low-density recombinant human Trop-2 chip, three runs
[7] = target: human Trop-2 (EGP-1, TACSTD2) on human tumor cells or tissues (human) (UniProt P09758); experiment: cell binding assay; cell line not stated
[8] = target: human Trop-2 (EGP-1, TACSTD2) on human tumor cells or tissues (human) (UniProt P09758); experiment: cell-based or functional assay; remark: listed apart in the source
[9] = target: Recombinant human Trop-2 with a His-tag (Sino Biological, Inc., Cat#10428-H09H) (human) (UniProt P09758); experiment: ELISA on Ni-NTA strips coated with His-tagged recombinant human Trop-2
Chain of Recombinant human Trop-2 with a His-tag (Sino Biological, Inc., Cat#10428-H09H) (human) (P09758 27-274 limits assumed): as above

Chain of human Trop-2 (EGP-1, TACSTD2) on human tumor cells or tissues (human) (P09758 27-323): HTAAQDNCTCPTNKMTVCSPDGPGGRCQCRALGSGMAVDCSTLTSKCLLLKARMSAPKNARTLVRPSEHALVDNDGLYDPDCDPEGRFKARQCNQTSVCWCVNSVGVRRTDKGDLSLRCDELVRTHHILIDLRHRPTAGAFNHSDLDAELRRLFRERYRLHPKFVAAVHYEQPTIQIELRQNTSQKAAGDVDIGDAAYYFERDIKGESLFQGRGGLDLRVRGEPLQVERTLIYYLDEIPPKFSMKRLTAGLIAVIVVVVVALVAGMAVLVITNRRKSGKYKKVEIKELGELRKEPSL

Molecule: 162-46.2 (murine monoclonal antibody against human Trop-2, hybridoma ATCC HB-187)
BMax (relative luminescent units) [1]: 8470 | Kd [1]: 0.52 nM | reduction of maximum binding (Bmax) against RS7 [1]: 25%

Molecule: MAB650 (murine monoclonal antibody against human Trop-2, R&D Systems)
BMax (relative luminescent units) [1]: 6020 | Kd [1]: 0.49 nM | reduction of maximum binding (Bmax) against RS7 [1]: 50%

Molecule: Sacituzumab govitecan (IMMU-132, also known as hRS7-CL2A-SN-38) (antibody)
Kd [2]: 192 nM | fold lower average binding level than hRS7 [3]: 2 fold | ADCC, specific lysis of MDA-MB-468 (4-h LDH release, E:T 50:1, 33.3 nM) [4]: 8.6% | Median fluorescence intensity of anti-rH2AX-AF488 staining (dsDNA breaks), HCC1806 (Trop-2+) [4]: 546 MFI | decrease of ADCC relative to hRS7 (MDA-MB-468, NIH:OVCAR-3, BxPC-3) [4]: > 60% | γH2AX induction in BxPC-3, Mean Fluorescence Intensity [4]: 5350 MFI | γH2AX induction in BxPC-3, Percent Positive [4]: 69% | fold improvement of KD against naked hRS7 [5]: 2 fold | Kd [6]: 0.26 nM | Kd [7]: 1.2 nM

Further lines, results first:

γH2AX induction in BxPC-3, Mean Fluorescence Intensity [8]: 2250 MFI | γH2AX induction in BxPC-3, Percent Positive [8]: 12.7%
B1: hA20-SN-38 (anti-CD20 hA20 / veltuzumab conjugated to SN-38), non-binding control conjugate (antibody, INN chains, looked up, V domains shown, part only)
VH: QVQLQQSGAEVKKPGSSVKVSCKASGYTFTSYNMHWVKQAPGQGLEWIGAIYPGMGDTSYNQKFKGKATLTADESTNTAYMELSSLRSEDTAFYYCARSTYYGGDWYFDVWGQGTTVTVSS
VL: DIQLTQSPSSLSASVGDRVTMTCRASSSVSYIHWFQQKPGKAPKPWIYATSNLASGVPVRFSGSGSGTDYTFTISSLQPEDIATYYCQQWTSNPPTFGGGTKLEIKR
modifications: SN-38 via CL2A linker

Kd [2]: 92.4 nM | ADCC, specific lysis of BxPC-3 by PBMC (E:T 100:1, 33.3 nM) [8]: 8.5% | ADCC, specific lysis of MDA-MB-468 (4-h LDH release, E:T 50:1, 33.3 nM) [8]: 29.8% | Kd [6]: 0.51 nM | Kd [9]: 0.3 nM
B2: humanized RS7 (hRS7) anti-Trop-2 antibody, hRS7 IgG (antibody, INN chains, looked up, V domains shown, part only)
VH: QVQLQQSGSELKKPGASVKVSCKASGYTFTNYGMNWVKQAPGQGLKWMGWINTYTGEPTYTDDFKGRFAFSLDTSVSTAYLQISSLKADDTAVYFCARGGFGSSYWYFDVWGQGSLVTVSS
VL: DIQLTQSPSSLSASVGDRVSITCKASQDVSIAVAWYQQKPGKAPKLLIYSASYRYTGVPDRFSGSGSGTDFTLTISSLQPEDFAVYYCQQHYITPLTFGAGTKVEIK
